Experimental data: patent US11994512B2, “Single-cell genomic methods to generate ex vivo cell systems that recapitulate in vivo biology with improved fidelity” (Massachusetts Institute of Technology, priority 2018, dated 2024)

Test system: intracellular proteome of ENR+CD and ENR organoids
Experiment: LC-MS/MS TMT proteomics of ENR+CD versus ENR organoids
Assay type: cell-based, C57BL/6 mice
Settings: for Average logFC / M1-1 Log2 Median Normalized / M1-2 Log2 Median Normalized / M2-1 Log2 Median Normalized / M2-2 Log2 Median Normalized: protein abundance, ENR+CD versus ENR organoids; for Average logFC: aggregate of the four sample pairs; for M1-1 Log2 Median Normalized: replicate M1-1; for M1-1 Log2 Median Normalized / M1-2 Log2 Median Normalized / M2-1 Log2 Median Normalized / M2-2 Log2 Median Normalized: log2 ratio; for M1-2 Log2 Median Normalized: replicate M1-2; for M2-1 Log2 Median Normalized: replicate M2-1; for M2-2 Log2 Median Normalized: replicate M2-2; for change: up = enriched in ENR+CD, down = enriched in ENR, FDR<0.05 and log fold change cut-off

Row | Molecule | Average logFC | M1-1 Log2 Median Normalized | M1-2 Log2 Median Normalized | M2-1 Log2 Median Normalized | M2-2 Log2 Median Normalized | change
1 | Q3UHD3 (protein, UniProt Q3UHD3 1-1353, looked up, full-length) MSVPLAPKKSCFGQLRDHREGAKNNNESILRTGDTNANQIMLEVSSSCDEAKSRDLDDELGNSNLSRPQYHSHFQKEPLHLQGFGKGSQAGSTSQRESQASLTVHRQLSEEHAVKRGALQAPQCVQGPSLSSWRNAVGQASPEASAKKDAEIPRHIPKDKLAKTLDNEELKRASSCSAAAGSVPPTDLQPVQLDTLGPQDHVPARGEGPQRTPASHSPGKGFSPGEGTSEGNSVYLPKPSTSEAKGSSPSDTKMEGPHGLDVYNERITHAELTPSSASASKENPGLRHPEVCLGQGTGKSKVELKSVQPRNEEGLTSAQAQGPGCHEERSMSPVERQELLEKAYREATSQGNSSHRQLGVRRGSSLEEMTGVSAGVEGSQQATPTLSAAPAGEAGTRLTGKMSAGVGRMARETASGQTAPDVGQAAPVRRDPTESVPSEVSGEERRLGSGNSGSTKLLASGPSAGGSRTDTSGLLSPRGSNLEARKGKEMVAENRNLLENAAQTDNTPAGVDSAFSTPAPLLHPETTVNSSHHPTPPGSSSQELGVFSGDTGSPSVASPPTDGGQVLNTSPKVPDRTTCSSGIPKPPTHPKDTPSSQEAREKLETEKMEERAEAKPILMPKPKHVRPKIITYIRRNPQALSQGDASLVPVGLPYAPPTCGMPLPQEEKAASRDLQPSANMYEKLKPDLQKPRVFPSGLMVSGIKPPAHHFSQMSEKFLQEVADHPGKEEFCSPPYTHYEVPPTFYRSAMLLKPQLGLGAMSRLPSTKSRILIASQRSSASAIHPPGSLTTAASFYGSDPSDLKKASNSNAAKASLPKSGLRPPGYSRLPAAKLAAFGFVRSSSISAVPSSQSLDSVQPEQSRPVTRSTFGNEEQAPLKQALPSKDTPKGAGRAAPASSSNATTPRRSLLPAPKSTSTPAGAKKELQKDPEAKKPAVSSPKRTASAATKPHSPGYPKQRTSAPRNEFPPKPDLQAREAERQLAQRLRDRCEWQARQLGLARRELKKAIQGFDALAVSTKHFFGKSERALAKEKELSIELANIRDEVAFNTAKCEKLQKEKETLERRFEEELRRLGWQQQAEVQELQERLQQQFQAESARLQAEHQDQLLRMRCQHQEQVEDITASHEAALLEMENNHTVAITILQDDHDHKVQELMSTHEFEKKELEENFEKLRLTLQDQVDTLTFQSQSLRDRARRFEEALRKTTEEQLEIALAPYQHLEEDMQSLKQVLEMKNQQIHLQEKKIIELEKLVEKNIILEERIQVLQQQNEDLKARIDQNTVVTRQLSEENANLQEYVEKETQEKKRLSRTNEELLWKLQTGDPTSPIKLSPTSPVYRGSSSGPSSPARVSTTPR | 1.47 | 1.347 | 0.087 | 1.7985 | 2.649 | up
2 | Q3UA16 (protein, UniProt Q3UA16 1-226, looked up, full-length) MGEDELALLNQSINEFGDKFRNRLDDNHSQVLGLRDAFKDSMKAFSEKMSLKLKEEERMTEMILEYKNQLCKQNKLIQEKKENVLKMIAEVKGKEQESEELTAKIQELKEEYARKRETISTANKANEERLKGLQKSADLYRDYLGLEIRKIHGNKLQFIFTSIDPKNPESPYMFSMSINEAKEYEVYDSSPHLECLAEFQEKVRKTNNFSAFLANIRKAFIAKVHN | −1.826 | −1.924 | −0.747 | −1.8235 | −2.598 | down
3 | Q3U0B3 (protein, UniProt Q3U0B3 1-260, looked up, full-length) MTRAGMERWRDRLALVTGASGGIGAAVARALVQQGLKVVGCARTVGNIEELAAECKSAGYPGTLIPYRCDLSNEEDILSMFSAVRSQHSGVDICINNAGMARPDTLLSGSTSGWKDMFNVNVLALSICTREAYQSMKERNIDDGHIININSMCGHRVPPQSVIHFYSATKYAVTALTEGLRQELLEAQTHIRATCISPGLVETQFAFKLHDKDPGEAAATYEHIKCLRPEDVAEAVIYVLSTPPHVQVGDIQMRPTEQVT | −1.3 | −1.054 | −1.691 | −1.5305 | −0.923 | down
4 | Q3UGF1 (protein, UniProt Q3UGF1 1-1341, looked up, full-length) MKRVFSLLEKSWLGAPIQFAWQKSSGNYLAVTGADYIVKIFDRHGQKRSEISLPGNCVTMDWDKDGDILAVIAEKSSCIYLWDANTNKTSQLDNGMRDQMSFLLWSKIGSFLAVGTIKGNLLIYNHQTSRKIPVLGKHTKKITCGCWNSENLLALGGEDKMITVSNQEGDTIRQTPVKSEPSDIKFSMSKTDERISSAENTISAVVGKKMLFLFHLNEPDNPVDLEFQQAYGNIVCYSWYGDGYIMIGFSRGTFLAISTHFPEVGQEIFKARDHKDNLTSVALSQTLNKAATCGDNCIKIHDLTELRDMYAIINLDDENKGLGTLSWTDDGQLLALSTQRGSLHVFLTKLPILGDACHTRIAYLTSLLEVTVANLIEGEPPITVSVDVEPTFVAVGLYHLAVGMNNRAWFYVLGENVVKKLKDVEYLGTVASICLHSDYAAALFEGKIQLHLIENEMLDAQEERETRLFPAVDDKCRILCHALTSDFLIYGTDTGIIHYFFIEDWQFVNDYRHPVGVKKLFPDPNGTRLVFIDEKSDGFVYCPVNDATYEIPDFSPTIKGVLWENWPMDKGVFIAYDDDKVYTYAFHKDTIQGSKVILAGSTKLPFSHKPLLLYNGELTCQTQSGKINSIYLSTHSFLGSMKDTEPTDLRQMLTQTLLLKRFSDAWDICKMLNDRTSWSELAKACLHHMEVEFAIRVSRTMGDVGTVMSLEQIKGIEDYNLLAGHLAMFTNDFNLAQDLYLASNCPVAALEMRRDLQHWDSALQLAKRLAPDQIPFISKEYAIQLEFTGDYVNALAHYEKGITGDNKEHDEVCLAGVAQMSIRMGDIRRGANQALKHPSRVLKRDCGAILENMKQFSEAAQLYEKGQYYDRAASVYIRCKNWAKVGELLPHVSSPKIHLQYAKAKEADGRYKEAVVAYENAKQWNSVIRIYLDHLNNPEKAVSIVRETQSLDGAKMVARFFLQLGDYGSAIQFLVLSKCNNEAFTLAQQHNKMEIYADIIGAEDTTNEDYQSIALYFEGEKRHFQAGKFFLLCGQYSRALKHFLKCPSSEDNVAIEMAIETVGQAKDELLTNQLIDHLMGESDGMPKDAKYLFRLYMALKQYREAARTAIIIAREEQSAGNYRNAHDVLFSMYAELKAQKIKIPSEMATNLMILHSYILVKIHVKSGDHMKGARMLIRVANNISKFPSHIVPILTSTVIECHRAGLKNSAFSFAAMLMRPEYRNKIDAKYKKKIEAMVRRPDTSETEEATTPCPFCQFLLPECELLCPGCKNNIPYCIATGRHMLKDDWTMCPHCGFPALYSEFKILLNSESTCPMCSERLNSSQLKKITDCSQYLRTEME | −1.153 | −0.199 | −0.895 | −1.3115 | −2.206 | down
5 | Q33DR2 (protein, UniProt Q33DR2 1-409, looked up, full-length) MAMRWSCWRRGCSWRPTAVGSPRRERPGCVEPLGTRAASDTRAQIPYFSLMKILMSASPTMHSISQFHQRTPAMCSCRQTQSGEKYSDPFKLGWRDLKGLYEDIRKELHISTRELKDMSEYYFDGKGKAFRPIIVVLMARACNIHHNNAREMQASQRSIALVAEMIHTATLVHDDVIDDASSRRGKHTVNKIWGEKKAVLAGDLILSAASVALARIGNTAVVSMLAQVIEDLVRGEFLQLGSKENENERFAHYLEKTFKKTASLIANSCKAVSVLGCPDPVVHEIAYQYGKNVGIAFQLIDDVLDFTSCSDQMGKPTSADLKLGIATGPVLFACQQFPEMNAMIMRRFSLPGDVDRARQYVLQSDGVQQTTYLAQQYCHKAVREIRKLRPSTERDALIQLSESVLTRDK | −1.389 | −1.379 | −1.779 | −1.2185 | −1.389 | down
6 | Q3U9N9 (protein, UniProt Q3U9N9 1-512, looked up, full-length) MVPSQEEPAAERETNEAQPPGPAPSDDAPLPGPGPSDVSDVAAEKVEVELTRSAGSEPPVPPEGGWGWLVMLAAMWCNGSVFGIQNAYGVLFVSMLDTFKAKDDDNMAFKTAWVGSLSMGMIFFCCPIVSVFTDMFGCRRTAVVGAAVGFIGLMSSSFVSSIEPLYLTYGIIFACGCSFAYQPSLVILGHYFKKRLGLVNGIVTAGSSVFTILLPLLLGNLISSVKLFNTLRILCIFMFVLFLAGFTYRPLVPSTKEKESGGSRSSFFSRRKLSPPKKVFNFALFKETTYAVWAAGIPLALFGYFVPYVHLMNHVKERFQDVNNKEVLFMCIGITSGVGRLLFGRIADYLPGVKKVYLQVLSFFFIGLMSMMIPLCSAFGALIAVCLAMGLFDGCFISIMAPIAFELVGPQDASQAIGFLLGFMSIPMTVGPPIAGLLHDKLGTYDVAFYLAGIPPFVGGVVLCLIPWIHSKKQRKISKNAGGEKMEKMLENQSSLLSGSSGIFKKDSASII | −1.314 | −1.309 | −0.055 | −1.4695 | −2.424 | down
